Assays:
[1] = molecular target: GL3^552–637, N6His- and GST-tagged recombinant protein (Arabidopsis) (UniProt Q9FN69); experiment: AlphaScreen or HTRF; ALPHA competition binding, apparent Kd; 100 nM N6His-tagged and 100 nM GST-tagged copies with untagged competitor (R^ACT 0–8 μM, GL3^ACT 0–10 μM); room temperature 2 h; one-site fit
[2] = molecular target: the molecule itself; experiment: biological repeat 2
[3] = molecular target: R^525–610, N6His- and GST-tagged recombinant protein (maize); experiment: AlphaScreen or HTRF; ALPHA saturation binding, apparent Kd; N6His-tagged and GST-tagged copies, one at 100 nM (R^ACT) or 500 nM (GL3^ACT), the other 0–4 μM (R^ACT) or 0–5 μM (GL3^ACT); Nickel Chelate donor and anti-GST acceptor beads; room temperature 2 h; one-site fit
[4] = molecular target: T1, R^525–610 L569H, N6His- and GST-tagged recombinant protein (maize); experiment: biological repeat 2
T1 chain: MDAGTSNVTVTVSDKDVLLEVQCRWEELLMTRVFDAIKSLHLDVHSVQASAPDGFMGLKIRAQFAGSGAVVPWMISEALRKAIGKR

[5] = molecular target: T2, R^525–610 A573S, N6His- and GST-tagged recombinant protein (maize); experiment: biological repeat 2
T2 chain: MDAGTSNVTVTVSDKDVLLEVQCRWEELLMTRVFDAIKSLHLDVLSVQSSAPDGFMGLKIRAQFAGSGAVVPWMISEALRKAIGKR

[6] = molecular target: the molecule itself; experiment: biological repeat 1
[7] = molecular target: T1, R^525–610 L569H, N6His- and GST-tagged …; experiment: biological repeat 1
[8] = molecular target: T2, R^525–610 A573S, N6His- and GST-tagged …; experiment: biological repeat 1
[9] = molecular target: R^525–610 V568S, N6His- and GST-tagged recombinant protein (maize); experiment: AlphaScreen or HTRF; ALPHA saturation binding, apparent Kd; N6His-tagged and GST-tagged copies, one at 100 nM (R^ACT) or 500 nM (GL3^ACT), the other 0–4 μM (R^ACT) or 0–5 μM (GL3^ACT); Nickel Chelate donor and anti-GST acceptor beads; room temperature 2 h; one-site fit

untagged GL3^552–637 (from UniProt Q9FN69 552-637) (domain or fragment)
Kd [1]: 1280 nM

B1: R^525–610, N6His- and GST-tagged recombinant protein (domain or fragment)
chain: MDAGTSNVTVTVSDKDVLLEVQCRWEELLMTRVFDAIKSLHLDVLSVQASAPDGFMGLKIRAQFAGSGAVVPWMISEALRKAIGKR
Kd [2]: 90 nM
Kd [3]: 100 nM

B2: R^525–610 V568S, N6His- and GST-tagged recombinant protein (domain or fragment)
chain: MDAGTSNVTVTVSDKDVLLEVQCRWEELLMTRVFDAIKSLHLDSLSVQASAPDGFMGLKIRAQFAGSGAVVPWMISEALRKAIGKR
Kd [4]: 310 nM
Kd [5]: 250 nM
Kd [6]: 1850 nM
Kd [7]: 340 nM
Kd [8]: 290 nM
Kd [9]: 1720 nM

Source: publication PMC8202348 (2021)
